T1: human IL-36R on cells (human, UniProt Q9HB29 20-575)
T1 sequence (looked up): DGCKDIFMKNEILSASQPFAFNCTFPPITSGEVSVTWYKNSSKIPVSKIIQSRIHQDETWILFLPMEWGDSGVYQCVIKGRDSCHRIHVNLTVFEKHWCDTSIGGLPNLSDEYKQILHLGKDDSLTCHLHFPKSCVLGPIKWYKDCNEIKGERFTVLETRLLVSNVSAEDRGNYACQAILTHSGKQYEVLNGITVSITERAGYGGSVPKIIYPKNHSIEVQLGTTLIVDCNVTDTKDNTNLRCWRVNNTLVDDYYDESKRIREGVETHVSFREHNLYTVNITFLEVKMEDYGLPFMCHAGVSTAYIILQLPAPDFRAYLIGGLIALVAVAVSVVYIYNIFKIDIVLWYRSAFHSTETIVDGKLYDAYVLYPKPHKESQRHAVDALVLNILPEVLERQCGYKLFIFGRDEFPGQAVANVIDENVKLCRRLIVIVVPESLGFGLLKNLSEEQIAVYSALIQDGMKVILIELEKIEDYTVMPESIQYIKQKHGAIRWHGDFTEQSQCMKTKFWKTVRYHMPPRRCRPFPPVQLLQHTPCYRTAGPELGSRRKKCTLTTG

T2: mouse IL-36R (mouse, UniProt Q9ERS7 22-338)
T2 sequence (looked up): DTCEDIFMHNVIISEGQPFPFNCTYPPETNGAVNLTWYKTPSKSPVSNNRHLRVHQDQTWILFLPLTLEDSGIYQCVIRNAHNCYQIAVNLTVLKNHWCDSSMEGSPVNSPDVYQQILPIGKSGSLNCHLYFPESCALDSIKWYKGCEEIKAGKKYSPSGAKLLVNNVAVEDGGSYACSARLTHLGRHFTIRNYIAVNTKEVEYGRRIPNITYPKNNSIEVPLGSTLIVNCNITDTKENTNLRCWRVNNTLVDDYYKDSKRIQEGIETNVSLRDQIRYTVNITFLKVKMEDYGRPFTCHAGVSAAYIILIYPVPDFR

T3: human IL-1R1 (human, UniProt P14778 18-336, limits assumed)
T3 construct: also called IL-1RI
T3 sequence (looked up): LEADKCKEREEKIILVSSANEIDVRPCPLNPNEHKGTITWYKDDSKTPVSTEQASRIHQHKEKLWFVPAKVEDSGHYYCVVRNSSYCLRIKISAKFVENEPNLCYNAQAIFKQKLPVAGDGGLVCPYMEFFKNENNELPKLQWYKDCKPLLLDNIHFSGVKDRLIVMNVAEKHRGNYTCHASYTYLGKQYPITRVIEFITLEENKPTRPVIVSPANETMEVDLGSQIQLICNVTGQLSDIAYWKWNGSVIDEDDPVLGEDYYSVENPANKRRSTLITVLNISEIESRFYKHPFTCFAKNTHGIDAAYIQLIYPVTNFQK

B1: chimeric antibody C73C5 (antibody, V domains shown)
VH: QVQLKESGPGLVAPSQSLSITCTVSGFSLTNYAVHWVRQFPGKGLEWLGVIWSDGSTDFNAPFKSRLSINKDNSKSQVFFKMNSLQIDDTAIYYCARKGGYSGSWFAYWGQGTLVTVSA
VL: DIVMTQSQKFLSTSVGVRVSVTCKASQDVGTNVLWYQQKIGQSPKPLIYSASYRHSGVPDRFTGSGSGTDFTLIISNVQSEDLAEYFCQQYSRYPLTFGPGTKLELK
notes: Mouse variable domains of 73C5 on human constant domains (hu IgG1KO/kappa); also called chimeric 73C5
B2: chimeric antibody C33D10 (antibody, V domains shown)
VH: QVQLQQSGTELLKPGASVKLSCKASGNTVTSYWMHWVKQRPGQGLEWIGEILPSTGRTNYNENFKGKAMLTVDKSSSTAYMQLSSLASEDSAVYYCTIVYFGNPWFAYWGQGTLVTVSA
VL: QIVLTQSPAIMSASLGERVTMTCTASSSVSSSYLHWYQKKPGSSPKLWVYSTSNLASGVPVRFSGSGSGTSYSLTISSMEAEDAATYYCHQHHRSPVTFGSGTKLEMK
notes: Mouse variable domains of 33D10 on human constant domains (hu IgG1KO/kappa); also called chimeric 33D10
B3: chimeric antibody C81B4 (antibody, V domains shown)
VH: QVQLQQPGADFVRPGASMRLSCKASGYSFTSSWIHWVKQRPGQGLEWIGEINPGNVRTNYNENFRNKATLTVDKSSTTAYMQLRSLTSADSAVYYCTVVFYGEPYFPYWGQGTLVTVSA
VL: B2 VL with L34F, K39Q, V49I, S51R, V61G, H92F, V97L, S101A, M107L
notes: Mouse variable domains of 81B4 on human constant domains (hu IgG1KO/kappa); also called chimeric 81B4
B4: chimeric antibody C81A1 (antibody, V domains shown)
VH: QVQLKESGPGLVAPSQSLFITCTVSGFSLSSYEINWVRQVPGKGLEWLGVIWTGITTNYNSALISRLSISKDNSKSLVFLKMNSLQTDDTAIYYCARGTGTGFYYAMDYWGQGTSVTVSS
VL: DIQMTQTTSSLSASLGDRVTISCRASQDIYKYLNWYQQKPDGTLKLLIYYTSGLHSGVPSRFSGSGSGTDFSLTISNLEPEDIATYFCQQDSKFPWTFGGDTKLEIK
notes: Mouse variable domains of 81A1 on human constant domains (hu IgG1KO/kappa); also called chimeric 81A1
B5: chimeric antibody of 67E7 (antibody, V domains shown)
VH: EVQLQQSGAEFVRPGASVKFSCTASGFNIKDDYIHWVRQRPEQGLEWVGRIDPANGNTKYAPKFQDKATITADTSSNTAYLQLSSLTSEDTAVYYCAKSFPNNYYSYDDAFAYWGQGTLVTVSA
VL: DIQMTQSPASQSASLGESVTFTCLASQTIGTWLGWYQQKPGKSPQLLIYRSTTLADGVPSRFSGSGSGTKFSFKISSLQAADFASYYCQQLYSAPYTFGGGTKLEIR
notes: No own label printed; also called chimeric 67E7
B6: chimeric antibody of 89A12 (antibody, V domains shown)
VH: B5 VH with F11L, K19R, F20L, E42K, V48L, A61D, K63R, Q82H, N102D
VL: B5 VL with T22S, S51A, T53S, K70N, A81E, F83L, A94G
notes: No own label printed; also called chimeric 89A12
B7: chimeric antibody of 172C8 (antibody, V domains shown)
VH: EVQLQQSGPELVKPGASVKLSCKASGYTFTDNYMNWVRQSHGKSLEWIGRVNPSNGDTKYNQNFKGKATLTVDKSLSTAYMQLNGLTSEDSAVYYCGRTKNFYSSYSYDDAMDYWGQGTSVTVSS
VL: DIQMTQSPASQSASLGESVTFTCLASQTIGTWLAWYQQRPGKSPQLLIYAATSLADGVPSRFSGSGSGTQFSFNIRSLQAEDFASYYCQQVYTTPLTFGGGTKLEIK
notes: No own label printed; also called chimeric 172C8
B8: chimeric antibody of 76E10 (antibody, V domains shown)
VH: QVQLKESGPVLVAPSQSLSITCTVSGFSLTNYGVHWVRQPPGKGLEWLGVIWPVGSTNYNSALMSRLSIHKDNSKSQVFLRMNSLQTDDTAIYYCAKMDWDDFFDYWGQGTTLTVSS
VL: DIVMTQSQKFMSATVGGRVNITCKASQNVGRAVAWYQQKPGQSPKLLTHSASNRYTGVPDRFTGSGSGTDFTLTITNMQSEDLADYFCQQYSSYPLTFGAGTKLDLK
notes: No own label printed; also called chimeric 76E10
B9: chimeric antibody of 73F6 (antibody, V domains shown)
VH: B1 VH with F59Y, I87T
VL: B1 VL with P46A, S76T
notes: No own label printed; also called chimeric 73F6
B10: chimeric antibody of 78C8 (antibody, V domains shown)
VH: QVQLKESGPVLVAPSQSLSITCTVSGFSLTKFGVHWIRQTPGKGLEWLGVIWAGGPTNYNSALMSRLTISKDISQSQVFLRIDSLQTDDTAMYYCAKQIYYSTLVDYWGQGTSVTVSS
VL: DVLLTQTPLSLPVSLGDQASISCRSSQNIVHSNGNTYLQWYLQKPGQSPKLLIYKVSNRFSGVPDRFSGSGSGTDFTLKISRVEAEDLGVYYCFQGSHVPFTFGAGTKLELK
notes: No own label printed; also called chimeric 78C8

Positions count from the first letter of the chain named.

The first experiment has as its target T1, human IL-36R on cells. Briefly: cell-based or functional assay.
Take B1: the “IC90, IL-8 release, NCI/ADR-RES cells, trun-IL-36a” value came out at 700 pM; the “IC90, IL-8 release, NCI/ADR-RES cells, trun-IL-36b” value is 400 pM; the “IC90, IL-8 release, NCI/ADR-RES cells, trun-IL-36g” value is 400 pM; the “IC90, pNFκB, NCI/ADR-RES cells, trun-IL-36a” value stood at 2.1 nM. Further, the “IC90, pNFκB, NCI/ADR-RES cells, trun-IL-36b” value amounted to 0.9 nM and the “IC90, pNFκB, NCI/ADR-RES cells, trun-IL-36g” value is 1.8 nM.
Regarding B2, the “IC90, IL-8 release, NCI/ADR-RES cells, trun-IL-36a” value was found to be 400 pM; the “IC90, IL-8 release, NCI/ADR-RES cells, trun-IL-36b” value was 300 pM; the “IC90, IL-8 release, NCI/ADR-RES cells, trun-IL-36g” value turned out to be 200 pM; the “IC90, pNFκB, NCI/ADR-RES cells, trun-IL-36a” value was determined as 1.9 nM. Also, the “IC90, pNFκB, NCI/ADR-RES cells, trun-IL-36b” value worked out at 2 nM and the “IC90, pNFκB, NCI/ADR-RES cells, trun-IL-36g” value amounted to 1.3 nM.
As for B3, the “IC90, IL-8 release, NCI/ADR-RES cells, trun-IL-36a” value stood at 400 pM; the “IC90, IL-8 release, NCI/ADR-RES cells, trun-IL-36b” value is 100 pM; the “IC90, IL-8 release, NCI/ADR-RES cells, trun-IL-36g” value came out at 100 pM; the “IC90, pNFκB, NCI/ADR-RES cells, trun-IL-36a” value amounted to 1.3 nM. The “IC90, pNFκB, NCI/ADR-RES cells, trun-IL-36b” value stood at 0.9 nM and the “IC90, pNFκB, NCI/ADR-RES cells, trun-IL-36g” value came out at 0.4 nM.

The target in another experiment is T1, human IL-36R on cells. Nature of the experiment: cell-based or functional assay. The source holds these as a separate data set.
For the molecule B1, the “IC90, IL-8 release, human primary keratinocytes (NHK), trun-IL-36a” value amounted to 29700 pM; the “IC90, IL-8 release, human primary keratinocytes (NHK), trun-IL-36b” value worked out at 49300 pM; the “IC90, IL-8 release, human primary keratinocytes (NHK), trun-IL-36g” value is 3600 pM; the “IC90, pNFκB, human primary keratinocytes (NHK), trun-IL-36b” value turned out to be 8.3 nM.
The corresponding values for B3 are 1200 pM, 11100 pM, 300 pM and 1.8 nM.
B4: the “IC90, IL-8 release, human primary keratinocytes (NHK), trun-IL-36a” value worked out at 23400 pM; the “IC90, IL-8 release, human primary keratinocytes (NHK), trun-IL-36b” value was 87000 pM; the “IC90, IL-8 release, human primary keratinocytes (NHK), trun-IL-36g” value stood at 1200 pM; the “IC90, pNFκB, human primary keratinocytes (NHK), trun-IL-36b” value stood at 7.1 nM.

A further experiment deals with T2, mouse IL-36R. Briefly: BLI (Fortebio Octet), antibody injected over antigen surface. How it is done: (§1) B) Molecular selectivity over mouse IL-36R and human IL-1R1 The mouse and chimeric anti-IL-36R antibodies were also injected over either a mouse IL-36R or a human IL-1R1 surface at a concentration of 100 nM. The binding signal to mouse IL-36R and to human IL-1R1 for these antibodies measured using the Fortebio Octet (Fortebio, Menlo Park, Calif.) is zero, which indicates these antibodies selectively bind to human IL-36R.
As for B5, the binding result is on record as “no binding (tested: 100 nM)”.
As to B6, the binding result is given as “no binding (tested: 100 nM)”.
With B7, the binding result is “no binding (tested: 100 nM)”.
On the same count and under the same terms, the entry for B8 is “no binding (tested: 100 nM)”; for B1 it is “no binding (tested: 100 nM)”.
On the same count and under the same terms, the same measure for B9: “no binding (tested: 100 nM)”; for B2: “no binding (tested: 100 nM)”; for B3: “no binding (tested: 100 nM)”.
The same measure, in the same setting: the same measure for B4: “no binding (tested: 100 nM)”; for B10: “no binding (tested: 100 nM)”.

For the next experiment, the target named is T3, human IL-1R1. Described as above. On the procedure:
as §1
As for B5, the binding result is recorded as “no binding (tested: 100 nM)”.
The same measure, in the same setting: the same measure for B6: “no binding (tested: 100 nM)”; for B7: “no binding (tested: 100 nM)”.
On the same count and under the same terms, the same measure for B8: “no binding (tested: 100 nM)”.
Still for that read-out and setting: the same measure for B1: “no binding (tested: 100 nM)”.
On to B9, for which the binding result is reported as “no binding (tested: 100 nM)”.
Turning to B2, the binding result is on record as “no binding (tested: 100 nM)”.
Same read-out and setting: the entry for B3 is “no binding (tested: 100 nM)”.
On the same count and under the same terms, the same measure for B4: “no binding (tested: 100 nM)”; for B10: “no binding (tested: 100 nM)”.

(Values after patent US20200231684A1 (published 2020).)
